Data taken from the supplement of paper PMC7877785.
± gives the uncertainty stated by the source.

Test: self-splicing fitness, log relative to wild type (ln ratio); higher = more splicing; Tetrahymena group I intron in knt gene, E. coli kanamycin selection, DiMSum; sequences stand for … in CUCUCU…GGAGGGAAAAGUUAUCAGGCAUGCACCUGGUAGCUAGUCUUUAAACCAAUAGAUUGCAUCGGUUUAAAAGGCAAGACCGUCAAAUUGCGGGAAAGGGGUCAACAGCCGUUCAGUACCAAGUCUCAGGGGAAACUUUGAGAUGGCCUUGCAAAGGGUAUGGUAAUAAGCUGACGGACAUGGUCCUAACCACGCAGCCAAGUCCUAAGUCAACAGAUCUUCUGUUGAUAUGGAUGCAGUUCACAGACUAAAUGUCGGUCGGGGAAGAUGUAUUCUUCUCAUAAGAUAUAGUCGGACCUCUCCUUAAUGGGAGCUAGCGGAUGAAGUGAUGCAACACUGGAGCCGCUGGGAACUAAUUUGUAUGCGAAAGUAUAUUGAUUAGUUUUGGAGUACUCGUGGUCG
Summary of the method: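 DiMSum derived fitness as the error-weighted combination of fold changes across replicates, kanamycin versus no kanamycin, normalised to wild type. E. coli BL21(DE3) held the library, which randomised all eight P1ex-region intron nucleotides within the knt kanamycin-resistance gene on pET-22b(+). Six replicate transformations grew overnight at 37°C or 30°C on LB agar with or without 25 μg/mL kanamycin, also containing 100 μg/mL carbenicillin, 50 μM IPTG and 0.2% rhamnose, and pooled colonies were amplicon-sequenced on an Illumina HiSeq 2500.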

| Sequence | self-splicing fitness (ln) (37 °C) | self-splicing fitness (ln) (30 °C) |
| --- | --- | --- |
| CUGCAGCAAUAUUACGCCGU | -1.3 ± 0.31 |  |
| CUGCAGCAAUAUUACGCGUU | -2.1 ± 0.16 | -3.32 ± 0.12 |
| CUGCAGCAAUAUUACGCUAA |  | -3.28 ± 0.29 |
| CUGCAGCAAUAUUACGGCCA | -0.578 ± 0.24 | -1.25 ± 0.34 |
| CUGCAGCAAUAUUACGGGUA | -0.797 ± 0.14 | -3.32 ± 0.4 |
| CUGCAGCAAUAUUACGUAAG | 0.277 ± 0.08 | -0.296 ± 0.069 |
| CUGCAGCAAUAUUACGUAUG | -1.19 ± 0.12 | -1.27 ± 0.091 |
| CUGCAGCAAUAUUACGUCCC |  | -1.66 ± 0.42 |
| CUGCAGCAAUAUUACGUCGC | -2.83 ± 0.32 | -4.61 ± 0.46 |
| CUGCAGCAAUAUUACGUGGC | -3.03 ± 0.24 | -3.72 ± 0.21 |
| CUGGAGCAAUAUUACGAAUC | -1.68 ± 0.45 | -3.47 ± 0.43 |
| CUGGAGCAAUAUUACGAUCG | 0.264 ± 0.21 | -1.7 ± 0.14 |
| CUGGAGCAAUAUUACGGAAU | -2.05 ± 0.36 |  |
| CUGGAGCAAUAUUACGGACG | -0.808 ± 0.11 | -1.4 ± 0.11 |
| CUGGAGCAAUAUUACGGCUG | -0.00856 ± 0.18 | -1.48 ± 0.15 |
| CUGGAGCAAUAUUACGGGGC | -2.29 ± 0.46 | -4.12 ± 0.46 |
| CUGGAGCAAUAUUACGGGUA | -1.77 ± 0.26 | -2.59 ± 0.23 |
| CUGGAGCAAUAUUACGUAAA | -2.22 ± 0.3 | -3.78 ± 0.36 |
| CUGGAGCAAUAUUACGUAAG | -0.0976 ± 0.1 | -1.06 ± 0.083 |
| CUGGAGCAAUAUUACGUAGU | -3.43 ± 0.46 |  |
| CUGGAGCAAUAUUACGUCCA | -2.26 ± 0.44 |  |
| CUGUAGCAAUAUUACGACCC |  | -1.04 ± 0.43 |
| CUGUAGCAAUAUUACGACUC | -1 ± 0.3 | -4.11 ± 0.42 |
| CUGUAGCAAUAUUACGCAGC |  | -3.17 ± 0.41 |
| CUGUAGCAAUAUUACGCAUU | -3.28 ± 0.47 | -3.8 ± 0.27 |
| CUGUAGCAAUAUUACGCCGG | -0.642 ± 0.19 | -2.3 ± 0.2 |
| CUGUAGCAAUAUUACGCCGU | -2.96 ± 0.4 |  |

| Sequence | self-splicing fitness (ln) (37 °C) | self-splicing fitness (ln) (30 °C) |
| --- | --- | --- |
| CUGUAGCAAUAUUACGCCUC |  | -2.16 ± 0.4 |
| CUGUAGCAAUAUUACGCCUU | -2.74 ± 0.3 | -3.46 ± 0.35 |
| CUGUAGCAAUAUUACGCUCA | -1.95 ± 0.23 | -2.22 ± 0.22 |
| CUGUAGCAAUAUUACGGAAA |  | -0.916 ± 0.34 |
| CUGUAGCAAUAUUACGGUCG | 0.323 ± 0.12 | -0.455 ± 0.09 |
| CUGUAGCAAUAUUACGUACA | -1.65 ± 0.18 | -3.41 ± 0.27 |
| CUGUAGCAAUAUUACGUCGC | -3.19 ± 0.4 | -2.89 ± 0.28 |
| CUGUAGCAAUAUUACGUGAC | -0.0647 ± 0.16 | -0.572 ± 0.098 |
| CUGUAGCAAUAUUACGUGGU | -2.75 ± 0.28 | -3.42 ± 0.24 |
| CUGUAGCAAUAUUACGUGUG | -0.37 ± 0.071 | -1.79 ± 0.058 |
| CUUAAGCAAUAUUACGAUCU | -1.48 ± 0.31 | -3.14 ± 0.37 |
| CUUAAGCAAUAUUACGCAGA | -1.93 ± 0.24 | -3.41 ± 0.36 |
| CUUAAGCAAUAUUACGCUCU | -2.81 ± 0.32 | -2.77 ± 0.13 |
| CUUAAGCAAUAUUACGGAGC | -4.02 ± 0.39 |  |
| CUUAAGCAAUAUUACGGCAC |  | -3.43 ± 0.43 |
| CUUAAGCAAUAUUACGGCGC | -2.7 ± 0.28 | -3.46 ± 0.37 |
| CUUAAGCAAUAUUACGGUCC |  | -1.36 ± 0.29 |
| CUUCAGCAAUAUUACGAACG | 0.406 ± 0.093 | -0.295 ± 0.062 |
| CUUCAGCAAUAUUACGACAC | -1.11 ± 0.24 |  |
| CUUCAGCAAUAUUACGACUU | -2.34 ± 0.21 | -4.07 ± 0.29 |
| CUUCAGCAAUAUUACGAGAU | -2.43 ± 0.26 | -3.35 ± 0.23 |
| CUUCAGCAAUAUUACGAUUU | -2.33 ± 0.18 | -3.34 ± 0.21 |
| CUUCAGCAAUAUUACGCACC | -2.61 ± 0.35 | -3.9 ± 0.47 |
| CUUCAGCAAUAUUACGCAUA | -1.82 ± 0.17 | -4.27 ± 0.37 |
| CUUCAGCAAUAUUACGCCGU | -2.05 ± 0.29 | -3.17 ± 0.35 |
| CUUCAGCAAUAUUACGCGUC | -0.821 ± 0.14 | -2.6 ± 0.23 |
